According to article PMC12477443, “Structural basis for mTORC1 regulation by the CASTOR1–GATOR2 complex” (Nature Structural & Molecular Biology, 2025):

B1: SESN2(E451Q/R390A/W444E), apo-locked mutant (natural protein, UniProt P58004 1-480, looked up)
chain: MIVADSECRAELKDYLRFAPGGVGDSGPGEEQRESRARRGPRGPSAFIPVEEVLREGAESLEQHLGLEALMSSGRVDNLAVVMGLHPDYFTSFWRLHYLLLHTDGPLASSWRHYIAIMAAARHQCSYLVGSHMAEFLQTGGDPEWLLGLHRAPEKLRKLSEINKLLAHRPWLITKEHIQALLKTGEHTWSLAELIQALVLLTHCHSLSSFVFGCGILPEGDADGSPAPQAPTPPSEQSSPPSRDPLNNSGGFESARDVEALMERMQQLQESLLRDEGTSQEEMESRFELEKSESLLVTPSADILEPSPHPDMLCFVEDPTFGYEDFTRRGAQAPPTFRAQDYTWEDHGYSLIQRLYPEGGQLLDEKFQAAYSLTYNTIAMHSGVDTSVLARAIWNYIHCVFGIRYDDYDYGEVNQLLERNLKVYIKTVACYPEKTTRRMYNLFERHFRHSQKVHVNLLLLEARMQAALLYALRAITRYMT
notes: sestrin2 (SESN2), leucine sensor; codon-optimized DNA in pET-28a+; also called SESN2^apo; 6×His–SESN2^apo; source: E. coli BL21(DE3), purified (Ni-NTA, SP cation-exchange flowthrough, Superdex 200 gel filtration)
B2: CASTOR1(S111A/D304A), apo-locked mutant (natural protein)
chain: MELHILEHRVRVLSVARPGLWLYTHPLIKLLFLPRRSRCKFFSLTETPEDYTLMVDEEGFKELPPSEFLQVAEATWLVLNVSSHSGAAVQAAGVTKIARSVIAPLAEHHVAVLMLSTYQTDFILVREQDLSVVIHTLAQEFDIYREVGGEPVPVTRDDSSNGFPRTQHGPSPTVHPIQSPQNRFCVLTLDPETLPAIATTLIDVLFYSHSTPKEAASSSPEPSSITFFAFSLIEGYISIVMDAETQKKFPSDLLLTSSSGELWRMVRIGGQPLGFDECGIVAQIAGPLAAADISAYYISTFNFAHALVPEDGIGSVIEVLQRRQEGLAS
notes: CASTOR1, arginine sensor; codon-optimized DNA in pET-28a+; Homodimer in the structure; also called CASTOR1^apo; 6×His–CASTOR1^apo; source: E. coli BL21(DE3), purified (Ni-NTA, Superdex 200 gel filtration)
B3: MIOS (subunit of the recombinant GATOR2 complex) (natural protein, human)
chain: MSGTKPDILWAPHHVDRFVVCDSELSLYHVESTVNSELKAGSLRLSEDSAATLLSINSDTPYMKCVAWYLNYDPECLLAVGQANGRVVLTSLGQDHNSKFKDLIGKEFVPKHARQCNTLAWNPLDSNWLAAGLDKHRADFSVLIWDICSKYTPDIVPMEKVKLSAGETETTLLVTKPLYELGQNDACLSLCWLPRDQKLLLAGMHRNLAIFDLRNTSQKMFVNTKAVQGVTVDPYFHDRVASFYEGQVAIWDLRKFEKPVLTLTEQPKPLTKVAWCPTRTGLLATLTRDSNIIRLYDMQHTPTPIGDETEPTIIERSVQPCDNYIASFAWHPTSQNRMIVVTPNRTMSDFTVFERISLAWSPITSLMWACGRHLYECTEEENDNSLEKDIATKMRLRALSRYGLDTEQVWRNHILAGNEDPQLKSLWYTLHFMKQYTEDMDQKSPGNKGSLVYAGIKSIVKSSLGMVESSRHNWSGLDKQSDIQNLNEERILALQLCGWIKKGTDVDVGPFLNSLVQEGEWERAAAVALFNLDIRRAIQILNEGASSEKGDLNLNVVAMALSGYTDEKNSLWREMCSTLRLQLNNPYLCVMFAFLTSETGSYDGVLYENKVAVRDRVAFACKFLSDTQLNRYIEKLTNEMKEAGNLEGILLTGLTKDGVDLMESYVDRTGDVQTASYCMLQGSPLDVLKDERVQYWIENYRNLLDAWRFWHKRAEFDIHRSKLDPSSKPLAQVFVSCNFCGKSISYSCSAVPHQGRGFSQYGVSGSPTKSKVTSCPGCRKPLPRCALCLINMGTPVSSCPGGTKSDEKVDLSKDKKLAQFNNWFTWCHNCRHGGHAGHMLSWFRDHAECPVSACTCKCMQLDTTGNLVPAETVQP
notes: MIOS, subunit of human GATOR2; codon-optimized DNA in pCAG; The MIOS chain of m1, for the pairs of subunits that touch in the structure

Assays:
[1] = molecular target: T1, WDR24 (subunit of the recombinant GATOR2 complex) (human, UniProt Q96S15 1-790); test: cryo-EM structure; purified GATOR2 at 0.45 mg/ml with threefold molar excess of CASTOR1^apo, twofold of SESN2^apo and threefold of GATOR1, 45 min on ice; Talos Arctica, 7.77 Å map; conditions: both partners purified
T1 construct: WDR24, subunit of human GATOR2; codon-optimized DNA in pCAG; The WDR24 chain of m1
T1 sequence: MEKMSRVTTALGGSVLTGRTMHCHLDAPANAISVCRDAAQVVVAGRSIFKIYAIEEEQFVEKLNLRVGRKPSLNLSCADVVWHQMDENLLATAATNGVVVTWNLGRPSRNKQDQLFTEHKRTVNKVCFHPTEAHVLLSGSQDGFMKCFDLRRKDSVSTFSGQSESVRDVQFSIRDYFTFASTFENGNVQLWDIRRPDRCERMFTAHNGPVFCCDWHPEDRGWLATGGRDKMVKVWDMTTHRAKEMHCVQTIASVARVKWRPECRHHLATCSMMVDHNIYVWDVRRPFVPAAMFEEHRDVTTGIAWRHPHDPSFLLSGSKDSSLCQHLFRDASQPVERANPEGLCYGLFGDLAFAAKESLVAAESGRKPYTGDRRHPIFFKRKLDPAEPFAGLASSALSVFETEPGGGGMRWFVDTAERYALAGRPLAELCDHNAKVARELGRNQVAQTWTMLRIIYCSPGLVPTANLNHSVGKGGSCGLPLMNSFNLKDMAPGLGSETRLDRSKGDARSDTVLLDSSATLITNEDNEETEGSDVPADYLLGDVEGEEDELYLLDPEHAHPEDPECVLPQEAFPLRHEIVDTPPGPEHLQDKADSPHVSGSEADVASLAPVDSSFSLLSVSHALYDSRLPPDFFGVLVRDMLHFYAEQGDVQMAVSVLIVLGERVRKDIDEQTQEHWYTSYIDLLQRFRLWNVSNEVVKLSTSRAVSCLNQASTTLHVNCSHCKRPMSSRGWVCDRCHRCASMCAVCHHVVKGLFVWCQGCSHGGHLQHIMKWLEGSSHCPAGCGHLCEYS

[2] = molecular target: B3; test: cryo-EM structure; purified GATOR2 at 0.45 mg/ml with a threefold molar excess of CASTOR1^apo, 45 min on ice, no arginine; Titan Krios; conditions: both partners purified
[3] = molecular target: the molecule itself; test: as above
[4] = molecular target: T2, WDR59 (subunit of the recombinant GATOR2 complex) (human, UniProt Q6PJI9 1-974); test: as above; conditions: both partners purified
T2 construct: WDR59, subunit of human GATOR2; codon-optimized DNA in pCAG; The WDR59 chain of m1
T2 sequence: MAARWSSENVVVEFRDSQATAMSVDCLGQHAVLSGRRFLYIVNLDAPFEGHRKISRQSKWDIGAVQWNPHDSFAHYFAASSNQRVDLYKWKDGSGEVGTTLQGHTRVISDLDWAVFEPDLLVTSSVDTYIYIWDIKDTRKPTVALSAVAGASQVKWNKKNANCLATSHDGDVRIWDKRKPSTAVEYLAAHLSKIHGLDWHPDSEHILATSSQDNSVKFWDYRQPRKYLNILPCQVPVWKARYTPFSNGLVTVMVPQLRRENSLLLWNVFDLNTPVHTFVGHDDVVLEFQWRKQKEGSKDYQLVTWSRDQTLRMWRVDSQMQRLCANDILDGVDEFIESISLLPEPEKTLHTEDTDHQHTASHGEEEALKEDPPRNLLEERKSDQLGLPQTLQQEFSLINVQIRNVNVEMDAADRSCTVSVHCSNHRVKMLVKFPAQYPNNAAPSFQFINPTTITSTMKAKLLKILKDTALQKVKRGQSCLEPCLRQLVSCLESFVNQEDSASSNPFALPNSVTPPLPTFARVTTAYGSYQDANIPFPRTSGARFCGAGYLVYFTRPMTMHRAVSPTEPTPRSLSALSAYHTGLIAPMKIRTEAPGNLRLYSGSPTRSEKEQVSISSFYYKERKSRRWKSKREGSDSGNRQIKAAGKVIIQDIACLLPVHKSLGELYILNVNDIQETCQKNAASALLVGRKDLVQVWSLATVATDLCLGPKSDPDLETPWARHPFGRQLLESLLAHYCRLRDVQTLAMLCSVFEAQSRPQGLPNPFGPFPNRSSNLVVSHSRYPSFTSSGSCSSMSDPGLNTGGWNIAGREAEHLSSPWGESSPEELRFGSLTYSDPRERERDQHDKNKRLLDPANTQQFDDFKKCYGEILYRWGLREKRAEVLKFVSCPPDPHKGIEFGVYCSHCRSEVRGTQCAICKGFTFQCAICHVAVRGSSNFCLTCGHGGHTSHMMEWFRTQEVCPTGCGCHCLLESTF

Binder: B1
- binding result [1]: binds

Binder: B2
- binding result [2]: binds
- stoichiometry N [3]: 2

Binder: B3
- binding result [3]: binds
- binding result [4]: binds
